Reference: patent publication US7183387 (Genentech, dated 2007)
Changes are numbered by the printed parent chain. Numbers in names are those of the source. Blank lines part the entries; values can stand above or below the binder they belong to.

Experiments:
[1] = biological target: T1, human FcγRIIA-R131 α subunit extracellular domain-6His-GST fusion (human, UniProt P12318 34-217); assay: ELISA, IgG:IgE hexamers on receptor-GST
T1 construct: also called FcγRIIA-Arg131; not shown: glutathione S-transferase (GST)
T1 sequence: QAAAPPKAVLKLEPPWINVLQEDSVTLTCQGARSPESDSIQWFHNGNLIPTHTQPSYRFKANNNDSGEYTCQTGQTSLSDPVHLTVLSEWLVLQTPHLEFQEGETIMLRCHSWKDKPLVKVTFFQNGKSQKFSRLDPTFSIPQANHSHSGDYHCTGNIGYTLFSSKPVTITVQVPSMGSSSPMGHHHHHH

[2] = biological target: T2, human FcγRIIB α subunit extracellular domain-6His-GST fusion (human, UniProt P31994 43-217); assay: ELISA, IgG:IgE hexamers on receptor-GST
T2 construct: not shown: glutathione S-transferase (GST)
T2 sequence: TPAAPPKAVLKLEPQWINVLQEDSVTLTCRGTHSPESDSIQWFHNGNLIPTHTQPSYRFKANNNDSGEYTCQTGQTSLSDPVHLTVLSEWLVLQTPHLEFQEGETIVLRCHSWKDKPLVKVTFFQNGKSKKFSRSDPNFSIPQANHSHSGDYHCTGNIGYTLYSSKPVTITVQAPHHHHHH

[3] = biological target: T3, human FcγRIIIA-F158 α subunit extracellular domain-6His-GST fusion (human, UniProt P08637 17-208); assay: ELISA, IgG:IgE hexamers on receptor-GST
T3 construct: also called FcγRIIIA-Phe158; not shown: glutathione S-transferase (GST)
T3 sequence (P08637 other isoform, or with tags, fused parts or gaps, form in doubt): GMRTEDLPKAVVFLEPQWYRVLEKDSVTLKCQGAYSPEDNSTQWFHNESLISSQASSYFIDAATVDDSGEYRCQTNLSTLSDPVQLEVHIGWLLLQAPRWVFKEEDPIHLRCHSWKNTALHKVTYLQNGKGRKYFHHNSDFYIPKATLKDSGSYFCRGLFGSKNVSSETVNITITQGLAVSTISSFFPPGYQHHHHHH

[4] = biological target: T4, human FcγRIIA-H131 α subunit extracellular domain-His6-GST fusion protein (human, UniProt P12318 34-217); assay: ELISA, IgG:IgE hexamer on coated FcγRIIA-H131-GST
T4 construct: also called FcγRIIA-His131; not shown: glutathione S-transferase (GST)
T4 sequence: T1 sequence with R134H

[5] = biological target: T4, human FcγRIIA-H131 α subunit …; assay: ELISA; binding ratio on FcγRIIA-H131 divided by that on FcγRIIA-R131
[6] = biological target: T5, human FcγRIIA-R131 α subunit extracellular domain-His6-GST fusion protein (human, UniProt P12318 34-217); assay: ELISA, IgG:IgE hexamer on coated FcγRIIA-R131-GST; value carried over from Table 6, 7 or 8
T5 construct: ECD-6His-GST fusion made in 293 cells, coated on the plate; also called FcγRIIA-Arg131; not shown: glutathione S-transferase (GST)
T5 sequence: T1 sequence

[7] = biological target: T5, human FcγRIIA-R131 α subunit …; assay: ELISA, IgG:IgE hexamer on coated FcγRIIA-R131-GST; separate assays run together with the H131 assays
[8] = biological target: T6, human FcγRIIA-R131 α subunit extracellular domain-His6-GST fusion (human, UniProt P12318 34-217); assay: ELISA, IgG complex, receptor coated
T6 construct: ECD-6His-GST fusion made in 293 cells; also called FcγRIIA-Arg131; not shown: glutathione S transferase (GST)
T6 sequence: T1 sequence

[9] = biological target: T7, human FcγRIIA-H131 α subunit extracellular domain-His6-GST fusion (human, UniProt P12318 34-217); assay: ELISA, IgG complex, receptor coated
T7 construct: ECD-6His-GST fusion made in 293 cells; also called FcγRIIA-His131; not shown: glutathione S transferase (GST)
T7 sequence: T1 sequence with R134H

[10] = biological target: T8, human FcγRIIIA-F158 α subunit extracellular domain-His6-GST fusion (human, UniProt P08637 17-208); assay: ELISA, IgG complex, receptor coated
T8 construct: ECD-6His-GST fusion made in 293 cells; also called FcγRIIIA-Phe158; not shown: glutathione S transferase (GST)
T8 sequence (P08637 other isoform, or with tags, fused parts or gaps, form in doubt): as above

B1: E27 IgG1 variant T256(269)A/D280(295)A/R292(309)A/S298(317)A/T307(326)A (antibody)
heavy: EVQLVESGGGLVQPGGSLRLSCAVSGYSITSGYSWNWIRQAPGKGLEWVASIKYSGETKYNPSVKGRITISRDDSKNTFYLQMNSLRAEDTAVYYCARGSHYFGHWHFAVWGQGTLVTVSSASTKGPSVFPLAPSSKSTSGGTAALGCLVKDYFPEPVTVSWNSGALTSGVHTFPAVLQSSGLYSLSSVVTVPSSSLGTQTYICNVNHKPSNTKVDKKVEPKSCDKTHTCPPCPAPELLGGPSVFLFPPKPKDTLMISRAPEVTCVVVDVSHEDPEVKFNWYVAGVEVHNAKTKPAEEQYNATYRVVSVLAVLHQDWLNGKEYKCKVSNKALPAPIEKTISKAKGQPREPQVYTLPPSREEMTKNQVSLTCLVKGFYPSDIAVEWESNGQPENNYKTTPPVLDSDGSFFLYSKLTVDKSRWQQGNVFSCSVMHEALHNHYTQKSLSLSPGK
light: DIQLTQSPSSLSASVGDRVTITCRASKPVDGEGDSYLNWYQQKPGKAPKLLIYAASYLESGVPSRFSGSGSGTDFTLTISSLQPEDFATYYCQQSHEDPYTFGQGTKVEIKRTVAAPSVFIFPPSDEQLKSGTASVVCLLNNFYPREAKVQWKVDNALQSGNSQESVTEQDSKDSTYSLSSTLTLSKADYEKHKVYACEVTHQGLSSPVTKSFNRGEC
ratio to native IgG1 [1]: 0.11
ratio to native IgG1 [2]: 0.08
ratio to native IgG1 [3]: 0.9

B2: anti-IgE E27 IgG1 variant Ser267Ala (antibody)
heavy: not shown
light: B1 light
notes: also called S267(280)A; S280A
ratio of binding of the variant to that of native IgG1 [4]: 1.1 ratio (variant/native IgG1)
H131/R131 [5]: 0.71 ratio (H131 value/R131 value)
ratio of binding of the variant to that of native IgG1 [6]: 1.52 ratio (variant/native IgG1)
ratio of binding of the variant to that of native IgG1 [7]: 1.53 ratio (variant/native IgG1)

B3: anti-IgE E27 IgG1 variant S267(280)A (antibody)
heavy: not shown
light: B1 light
notes: Fc variant of E27; also called IG2 15; G15
ratio of binding, variant/native IgG1 (mean) [8]: 1.64 ratio
ratio of binding, variant/native IgG1 (mean) [9]: 1.05 ratio
ratio of binding, variant/native IgG1 (mean) [10]: 1.14 ratio

B4: anti-IgE E27 IgG1 variant Lys317Ala (antibody)
heavy: not shown
light: B1 light
notes: also called K317(336)A; IG2 46
ratio of binding of the variant to that of native IgG1 [4]: 1.08 ratio (variant/native IgG1)
H131/R131 [5]: 0.99 ratio (H131 value/R131 value)
ratio of binding of the variant to that of native IgG1 [6]: 1.13 ratio (variant/native IgG1)
ratio of binding of the variant to that of native IgG1 [7]: 1.1 ratio (variant/native IgG1)

B5: anti-IgE E27 IgG1 variant Thr307Ala (antibody)
heavy: not shown
light: B1 light
notes: also called T307(326)A; IG2 41
ratio of binding of the variant to that of native IgG1 [4]: 1.18 ratio (variant/native IgG1)
H131/R131 [5]: 0.94 ratio (H131 value/R131 value)
ratio of binding of the variant to that of native IgG1 [6]: 1.07 ratio (variant/native IgG1)
ratio of binding of the variant to that of native IgG1 [7]: 1.28 ratio (variant/native IgG1)

B6: anti-IgE E27 IgG1 variant S267(280)G (antibody)
heavy: not shown
light: B1 light
notes: Fc variant of E27; also called IG2 189; Ser267Gly
ratio of binding, variant/native IgG1 (mean) [8]: 1.21 ratio
ratio of binding, variant/native IgG1 (mean) [9]: 0.59 ratio
ratio of binding, variant/native IgG1 (mean) [10]: 0.09 ratio

B7: anti-IgE E27 IgG1 variant His268Ala (antibody)
heavy: not shown
light: B1 light
notes: also called H268(281)A; H281A
ratio of binding of the variant to that of native IgG1 [4]: 0.97 ratio (variant/native IgG1)
H131/R131 [5]: 0.75 ratio (H131 value/R131 value)
ratio of binding of the variant to that of native IgG1 [6]: 1.21 ratio (variant/native IgG1)
ratio of binding of the variant to that of native IgG1 [7]: 1.3 ratio (variant/native IgG1)

B8: anti-IgE E27 IgG1 variant N315(334)A (antibody)
heavy: not shown
light: B1 light
notes: Fc variant of E27; also called IG2 45; Asn315Ala
ratio of binding, variant/native IgG1 (mean) [8]: 1.15 ratio
ratio of binding, variant/native IgG1 (mean) [9]: 1.11 ratio
ratio of binding, variant/native IgG1 (mean) [10]: 1.07 ratio

B13: anti-IgE E27 IgG1 variant Asn315Ala (antibody)
heavy: not shown
light: B1 light
notes: also called IG2 45
ratio of binding of the variant to that of native IgG1 [4]: 1.1 ratio (variant/native IgG1)
H131/R131 [5]: 0.99 ratio (H131 value/R131 value)
ratio of binding of the variant to that of native IgG1 [6]: 1.15 ratio (variant/native IgG1)
ratio of binding of the variant to that of native IgG1 [7]: 1.11 ratio (variant/native IgG1)

B14: anti-IgE E27 IgG1 variant Asp270Ala (antibody)
heavy: not shown
light: B1 light
notes: also called D270(283)A; D283A
ratio of binding of the variant to that of native IgG1 [4]: 0.45 ratio (variant/native IgG1)
H131/R131 [5]: 16.6 ratio (H131 value/R131 value)

B18: anti-IgE E27 IgG1 variant K317(336)A (antibody)
heavy: not shown
light: B1 light
notes: Fc variant of E27; also called IG2 46; Lys317Ala
ratio of binding, variant/native IgG1 (mean) [8]: 1.13 ratio
ratio of binding, variant/native IgG1 (mean) [9]: 1.04 ratio
ratio of binding, variant/native IgG1 (mean) [10]: 1.1 ratio

B20: anti-IgE E27 IgG1 variant Ser267Ala/His268Ala (antibody)
heavy: not shown
light: B1 light
notes: also called S267(280)A H268(281)A; IG2 96
ratio of binding of the variant to that of native IgG1 [4]: 1.02 ratio (variant/native IgG1)
H131/R131 [5]: 0.65 ratio (H131 value/R131 value)
ratio of binding of the variant to that of native IgG1 [6]: 1.41 ratio (variant/native IgG1)
ratio of binding of the variant to that of native IgG1 [7]: 1.57 ratio (variant/native IgG1)

The next lines start with the values.

ratio of binding, variant/native IgG1 (mean) [8]: 1.12 ratio
ratio of binding, variant/native IgG1 (mean) [9]: 1.16 ratio
ratio of binding, variant/native IgG1 (mean) [10]: 0.87 ratio
B9: anti-IgE E27 IgG1 variant K320(339)A (antibody)
heavy: not shown
light: B1 light
notes: Fc variant of E27; also called IG2 48; Lys320Ala

ratio of binding, variant/native IgG1 (mean) [8]: 1.22 ratio
ratio of binding, variant/native IgG1 (mean) [9]: 1.09 ratio
ratio of binding, variant/native IgG1 (mean) [10]: 0.52 ratio
B10: anti-IgE E27 IgG1 variant H268(281)A (antibody)
heavy: not shown
light: B1 light
notes: Fc variant of E27; also called IG2 16; G16

ratio to native IgG1 [1]: 0.44
ratio to native IgG1 [2]: 0.22
ratio to native IgG1 [3]: 1.41
B11: E27 IgG1 variant T256(269)A/S298(317)A (antibody)
heavy: not shown
light: B1 light
notes: also called IG2 1059

ratio of binding, variant/native IgG1 (mean) [8]: 1.19 ratio
ratio of binding, variant/native IgG1 (mean) [9]: 1.37 ratio
ratio of binding, variant/native IgG1 (mean) [10]: 1.12 ratio
B12: anti-IgE E27 IgG1 variant T307(326)A (antibody)
heavy: not shown
light: B1 light
notes: Fc variant of E27; also called IG2 41; Thr307Ala

ratio to native IgG1 [1]: 0.47
ratio to native IgG1 [2]: 0.3
ratio to native IgG1 [3]: 1.21
B15: E27 IgG1 variant T256(269)A/D280(295)A/S298(317)A/T307(326)A (antibody)
heavy: B1 heavy with A296R
light: B1 light
notes: also called IG2 1051

ratio of binding of the variant to that of native IgG1 [4]: 0.54 ratio (variant/native IgG1)
H131/R131 [5]: 0.47 ratio (H131 value/R131 value)
ratio of binding of the variant to that of native IgG1 [6]: 1.18 ratio (variant/native IgG1)
B16: anti-IgE E27 IgG1 variant Ser267Gly (antibody)
heavy: not shown
light: B1 light
notes: also called S267(280)G; IG2 189

ratio of binding, variant/native IgG1 (mean) [8]: 1.12 ratio
ratio of binding, variant/native IgG1 (mean) [9]: 1.04 ratio
ratio of binding, variant/native IgG1 (mean) [10]: 0.84 ratio
B17: anti-IgE E27 IgG1 variant V305(324)A (antibody)
heavy: not shown
light: B1 light
notes: Fc variant of E27; also called IG2 40; Val305Ala

ratio of binding, variant/native IgG1 (mean) [8]: 1.54 ratio
ratio of binding, variant/native IgG1 (mean) [9]: 1.07 ratio
ratio of binding, variant/native IgG1 (mean) [10]: 0.84 ratio
B19: anti-IgE E27 IgG1 variant S267(280)A/H268(281)A (antibody)
heavy: not shown
light: B1 light
notes: Fc variant of E27; also called IG2 96; Ser267Ala/His268Ala

ratio of binding of the variant to that of native IgG1 [4]: 1.06 ratio (variant/native IgG1)
H131/R131 [5]: 1.08 ratio (H131 value/R131 value)
ratio of binding of the variant to that of native IgG1 [6]: 1.12 ratio (variant/native IgG1)
ratio of binding of the variant to that of native IgG1 [7]: 1 ratio (variant/native IgG1)
B21: anti-IgE E27 IgG1 variant Val305Ala (antibody)
heavy: not shown
light: B1 light
notes: also called V305(324)A; IG2 40
